Entries after “also recorded” stand apart in the source; their conditions may differ.
Key:
keloid cell = assay: Keloid cell matrix synthesis; assay type: cell-based; conditions: 0, 50, 100, 200, 500 ng/ml
[1] = tested on: MSCs or MSC-derived fibroblasts (MSC-Fb); assay: Myofibroblastic differentiation: αSMA expression by immunofluorescence and flow cytometry; assay type: cell-based, human
Protocol: MSC-derived fibroblasts were subjected to 5 ng/mL recombinant human TGFβ1 (R&D Systems, Minneapolis, Minn.) for 7 days. Undifferentiated hMSCs were treated with TGFβ1 as control. The expression of αSMA (Abcam, Cambridge, Mass.) was evaluated by immunofluorescence with rhodamine-phalloidin (Invitrogen, Carlsbad, Calif.). The number of αSMA+ cells was quantified by flow cytometry.
Briefly, cells were trypsinized, counted, resuspended into 1×10^6 cells/tube and fixed in […] formaldehyde. Following washing in 0.1% triton, the cells were incubated with αSMA primary antibody (Abcam, Cambridge, Mass.) for 30 min. Following centrifugation at 400 g for 5 min, the cells were incubated with fluorochrome-labeled secondary antibody (Abcam, Cambridge, Mass.) for 30 min in the dark, and resuspended in PBS supplemented with 3% BSA and 1% sodium azide. The samples were then analyzed using a multifunctional cell sorter (FACSAria™ II; BD Biosciences, San Jose, Calif.).

[2] = tested on: MSCs in collagen type I gel; assay: Collagen gel contraction assay; assay type: cell-based, human; conditions: cell-populated collagen lattices, up to 7 days
Protocol: Neutralized collagen type I (2 mg/mL) (R&D Systems, Minneapolis, Minn.) was mixed thoroughly with 1×10^6/mL MSCs, MSC-Fb or αSMA+ cells. Cell-populated collagen solution was cast in 24-well plates for 1 hr at 37° C. to induce gelation. Upon 48-hr incubation, cell-populated collagen lattices were physically detached and allowed to float freely in medium. Up to the tested 7 days, the diameters of cell-populated collagen lattices were measured on digital images.

[3] = tested on: Human mesenchymal stem cells (hMSCs); assay: CCN2/CTGF fibroblastic differentiation of hMSCs: collagen deposition (Trichrome staining), collagen type I and tenascin-C ELISA; assay type: cell-based
Text: Human mesenchymal stem cells (hMSCs) were isolated from fresh whole bone marrow samples of two anonymous adult donors (age range: 20-25 yrs old) (AllCells, Berkeley, Calif.). Mononucleated and adherent cells were purified by centrifugation through a density gradient (Ficoll-Paque) per our prior methods (30) and using negative selection following manufacturer's protocols (RosetteSep, StemCell Technologies, Vancouver, Canada) to remove hematopoietic cells and other differentiated cells.
Briefly, bone marrow was transferred to a 50 mL tube, followed by addition of […] of RosetteSep and incubation for 20 min. Then 15 mL PBS in 2% fetal bovine serum (FBS) and 1 mM ethylenediaminetetraacetic acid (EDTA) were added to a total volume of ˜30 mL. The sample was layered on 15 mL Ficoll-Paque and centrifuged 25 min at 3000×g. The entire layer of enriched cells was removed from Ficoll-Paque interface. The cocktail was centrifuged at 1000 rpm for 10 min. Collected cells were counted using trypan blue, plated at 0.5-1 million cells per 100 mm dish and allowed to attach for about 5 days, followed by regular medium change every two days. At 80-90% confluence, cells were trypsinized, centrifuged, resuspended in growth medium as passage 1 (P1) cells, and incubated in 5% CO2 at 37° C., with fresh medium changes every 3-4 days. Growth medium was defined as Dulbecco's Modified Eagle's Medium-Low Glucose (DMEM-LG; Sigma, St. Louis, Mo.), 1% antibiotic (1× Antibiotic-Antimycotic, including […] Penicillin G sodium, 10 mg/mL Streptomycin sulfate and 0.25 μg/mL amphotericine B) (Gibco, Invitrogen, Carlsbad, Calif.) and 10% Fetal Bovine Serum (FBS; Atlanta Biologicals, Norcross, Ga.).
P3 or P4 hMSCs were culture-expanded in monolayer (˜5,000 cells/well) in 12-well plates. At 80-90% confluence, hMSCs were culture-supplemented with 0, 10, 50 or 100 ng/mL recombinant human connective tissue growth factor (CTGF) (BioVendor, Candler, N.C.) and 50 μg/mL ascorbic acid (Sigma), with conditioned medium change every third day. […] Accordingly, 100 ng/mL CCN2/CTGF was selected for fibroblastic differentiation for in vitro experiments.
(§1) Two to four weeks following CCN2/CTGF treatment, collagen type I and tenascin-C (Tn-C) were assayed by ELISA using commercial kits (Chondrex, Redmond, Wash. and IBL-America, Minneapolis, Minn.). Collagen type I matrix was lysed using 0.5 M acetic acid. Collagen deposition was visualized using Trichrome staining. Total RNA was isolated using Trizol from CCN2/CTGF-treated hMSCs. Following lysing with Trizol, samples were incubated for 5 min at RT. A total of 0.2 mL chloroform per mL Trizol was added, and followed by mixing and incubation for 3 min. After centrifugation at 12,000×g and 4° C. for 15 min, the upper phase was transferred into a new tube with 500 μL isopropanol added. After 10 min incubation and another centrifugation for 10 min at 12,000×g, the supernatant was discarded. The pellet was washed with 1 mL 75% ethanol and dried for 5-10 min. RNA samples were eluted in 50 μL DEPC-water, assessed for concentration and purity at 260 and 280 nm, and stored at −80° C. prior to reverse transcription. All RNA samples were reverse transcribed using a kit (Applied Biosystems, Foster City, Calif.). For mRNA quantification, real-time quantitative PCR reactions with the cDNA samples were performed using 7300 Real Time PCR System TaqMan® gene expression assays (Applied Biosystems, Foster City, Calif.). Commercially available primers and probes for human collagen types I and III, Tn-C, fibronectin (FN), matrix metallopeptidase-1 (MMP-1), fibroblastic specific protein 1 (FSP1), and vimentin were used (49, 50). Collagen type II (Col-II) and osteocalcin (OC) were selected as chondrogenic and osteogenic differentiation markers, respectively. CD29, CD44, CD105, CD106, CD117, BMPR, and sca1 were selected as MSC markers (30, 31). GAPDH was used as housekeeping gene.

[4] = tested on: Human mesenchymal stem cells (hMSCs); assay: Real-time quantitative PCR of MSC, fibroblastic, osteogenic, chondrogenic and myofibroblastic markers in CCN2/CTGF-treated hMSCs; assay type: cell-based
Protocol: as §1

[5] = tested on: CCN2/CTGF-treated MSCs (MSC-Fb); assay: Osteogenic, chondrogenic and adipogenic differentiation of CCN2/CTGF-treated MSCs (von Kossa, Alizarin Red, Safranin O, Oil-Red O); assay type: cell-based, human
Protocol: Chondrogenic medium was supplemented with 10 ng/mL transforming growth factor β3 (TGFβ3) (R&D Systems, Minneapolis, Minn.), whereas osteogenic medium was supplemented with 100 nM dexamethasone, 10 mM β-glycerophosphate, and 0.05 mM ascorbic acid-2-phosphate (Sigma) per our prior methods (31, 51). At Days 14 and 28, von Kossa staining and calcium assay was performed to evaluate osteogenic differentiation, whereas safranin O (Saf-O) straining and glycosaminoglycan (GAG) assays were performed to evaluate chondrogenic differentiation (Blyscan™, Biocolor, UK).
Osteogenic and chondrogenic medium were prepared as described above. Adipogenic medium contained […], 0.5 mM isobutylmethylxanthine, and […] per our prior methods (31, 52, 53). In 4 wks, Alizarin Red, Saf-O, and Oil-Red O staining were performed.

[6] = tested on: calvarial suture explants; assay: Ex vivo modulation of calvarial morphogenesis in organ culture; design: species or system Sprague-Dawley rats
Protocol: Calvarial explants, including frontal and parietal bones with intervening interfrontal, coronal and sagittal sutures were harvested with intact dura mater from p10 male Sprague-Dawley rats (Harlan, Indianapolis, Ind.). Isolated calvaria were placed in 12-well tissue culture plates with serum-free medium supplemented with 0 or 50 ng/mL recombinant human CCN2/CTGF (35), with medium change every 2 days. The CCN2/CTGF concentration was determined (data not shown). Five to 25 days following CCN2/CTGF treatment, Tn-C contents in supernatant were assayed using ELISA. Explant-cultured calvarial sutures were sectioned sagittally for H&E staining and immunohistochemistry. Calvarial sutures were scanned with pCT (vivaCT 40; Scanco, Southeastern, Pa.) to measure suture width.

[7] = tested on: calvarial suture mesenchymal cells; assay: Fibroblastic differentiation of calvarial suture mesenchymal cells; assay type: cell-based, rat; conditions: 100 ng/mL, cells from p7 patent calvarial sutures
Protocol: To isolate calvarial mesenchymal cells, the posterior interfrontal suture excluding calvarial bones was carefully dissected from p7 rat calvaria using surgical scissors. The overlying periosteum and the underlying dura mater were removed under dissection microscope. The isolated suture mesenchyme was lysed using 2 mg/mL collagenase for 1 hr at 37° C., and filtered with a tissue strainer (Fisher, Pittsburgh, Pa.). After centrifugation, the collected cells were counted using trypan blue, plated at 20,000-30,000 cells per 6-well plate, and allowed to attach for about 5 days, followed by medium change every 2-3 days until confluence. P1 or P2 calvarial cells were induced for osteogenic, chondrogenic, adipogenic, and fibroblastic differentiations for 4 wks as described below.

[8] = 2 and 4 wks, vs MSCs without CCN2/CTGF
[9] = 2 and 4 wks of CCN2/CTGF treatment

COC(=O)[C@@]1(O)C[C@H]2O[C@]1(C)n1c3ccccc3c3c4c(c5c6ccccc6n2c5c31)C(=O)NC4 [K252A]
keloid cell matrix synthesis (keloid cell): inhibits keloid cell matrix synthesis

TGFβ1: recombinant human TGFβ1 (R&D Systems), a known stimulant for myofibroblast phenotype
αSMA expression (immunofluorescence) ([1]; 5 ng/mL TGFβ1 on CCN2/CTGF-treated MSCs / MSC-derived fibroblastic cells): readily expressed αSMA+ microfilaments
cells that gained αSMA phenotype (flow cytometry) ([1]; TGFβ1 stimulation of CCN2/CTGF-treated MSCs (MSC-Fb)): 31.9%
cells that gained αSMA phenotype (flow cytometry) ([1]; TGFβ1 stimulation of undifferentiated MSCs without prior CCN2/CTGF treatment): 1.8%
contraction of collagen gel [2]: moderate contraction

B1: CCN2/CTGF: recombinant human connective tissue growth factor (BioVendor); 36-38 kDa cysteine-rich protein of the CCN family; SEQ ID NO: 1 (protein, listed as Homo sapiens)
chain: MTAASMGPVRVAFVVLLALCSRPAVGQNCSGPCRCPDEPAPRCPAGVSLVLDGCGCCRVCAKQLGELCTERDPCDPHKGLFCDFGSPANRKIGVCTAKDGAPCIFGGTVYRSGESFQSSCKYQCTCLDGAVGCMPLCSMDVRLPSPDCPFPRRVKLPGKCCEEWVCDEPKDQTVVGPALAAYRLEDTFGPDPTMIRANCLVQTTEWSACSKTCGMGISTRVTNDNASCRLEKQSRLCMVRPCEADLEENIKKGKKCIRTPKISKPIKFELSGCTSMKTYRAKFCGVCTDGRCCTPHRTTTLPVEFKCPDGEVMKKNMMFIKTCACHYNCPGDNDIFESLYYRKMYGDMA
collagen deposition with dose (Goldner's Trichrome staining) ([3]; 0, 10, 50 or 100 ng/mL, 4 wks): increased with increasing CCN2/CTGF doses
collagen synthesis ([3]; 10 ng/mL): sufficient to stimulate collagen synthesis
collagen synthesis ([3]; 50 ng/mL and 100 ng/mL, compared with 10 ng/mL): apparently more potent
collagen synthesis (Trichrome staining) ([3]; 100 ng/mL, 4 wks, vs MSCs without CCN2/CTGF): induced remarkable collagen synthesis; also recorded: prompted substantial collagen synthesis
collagen type I content (ELISA) [3, 8]: significantly greater; also recorded: significantly higher
tenascin-C content (ELISA) [3, 8]: significantly greater; also recorded: significantly higher
MSC stemness markers (CD29, CD44, CD105, CD106, CD117, BMPR, Sca1) [4, 9]: steady decreases; also recorded: gradually attenuated
fibroblastic mRNA markers (collagen types I and III, Tn-C, fibronectin, MMP-1, FSP1, vimentin) [4, 9]: concomitant increases; also recorded: gradually increased
chondrogenic marker collagen type II expression ([4]; CCN2/CTGF-treated MSCs): undetectable
myofibroblastic marker αSMA expression (RT-PCR) ([4]; CCN2/CTGF-treated MSCs): αSMA negative; also recorded: undetectable
osteogenic marker osteopontin expression ([4]; CCN2/CTGF-treated MSCs): undetectable; also recorded: minimally expressed
Safranin O staining ([5]; CCN2/CTGF-treated MSCs): negative
Von Kossa staining ([5]; CCN2/CTGF-treated MSCs): negative
ability to differentiate into osteogenic, chondrogenic and adipogenic cells ([5]; after 4 wk CCN2/CTGF stimulation (100 ng/mL), vs CCN2/CTGF-free MSCs): diminished ability to differentiate; also recorded: minimal capacity to further differentiate
αSMA expression (flow cytometry) ([1]; CCN2/CTGF-treated MSCs (MSC-Fb), no TGFβ1): general absence of αSMA; also recorded: absence of αSMA expression
αSMA expression (immunofluorescence) ([1]; CCN2/CTGF-treated MSCs, no TGFβ1): did not express αSMA; also recorded: minimal
contraction of collagen gel [2]: moderate contraction
rescue of calvarial suture from ectopic mineralization ([6]; 50 ng/mL to p10 explant for 25 days): rescued the calvarial suture from undergoing ectopic mineralization
rescue of calvarial suture from synostosis ([6]; 100 ng/mL, ex vivo culture to p35): rescued calvarial suture from undergoing synostosis
FSP1 and vimentin expression in calvarial suture ([6]; ex vivo CCN2/CTGF-treated suture): expressed
suture width (μCT) ([6]; p35, vs without CCN2/CTGF): significantly greater; also recorded: significantly wider
Tn-C (tenascin C) content of sutures ([6]; vs CCN2/CTGF-free sutures): significantly greater; also recorded: significantly more
differentiation into fibroblast-like cells (Trichrome) [7]: readily differentiated into fibroblast-like cells that are highly Trichrome positive

From patent publication US20130028978A1, “COMPOSITIONS AND METHODS FOR WOUND TREATMENT” (The Trustees of Columbia University in the City of New York, priority 2009, published 2013)
